From patent publication US20230002480A1

Experiments:
Assay in all cases: cell-based or functional assay
[1] = target: HIV-1 Env of pseudovirus HIV-0013095-2.11 (HIV-1)
[2] = target: HIV-1 Env of pseudovirus BJOX009000.02.4 (HIV-1)
[3] = target: HIV-1 Env of pseudovirus 928-28 (HIV-1)
[4] = target: HIV-1 Env of pseudovirus 6240_08_TA5_4622 (HIV-1)
[5] = target: HIV-1 Env of pseudovirus X1193_c1 (HIV-1)
[6] = target: HIV-1 Env of pseudovirus ZM247v1(Rev-) (HIV-1)
[7] = target: HIV-1 Env of pseudovirus T278-50 (HIV-1)
[8] = target: HIV-1 Env of pseudovirus R2184.c04 (HIV-1)
[9] = target: HIV-1 Env of pseudovirus 89-F1_2_25 (HIV-1)
[10] = target: HIV-1 Env of pseudovirus 249M B10 (HIV-1)
[11] = target: HIV-1 Env of pseudovirus 3103.v3.c10 (HIV-1)
[12] = target: HIV-1 Env of pseudovirus CNE53 (HIV-1)
[13] = target: HIV-1 Env of pseudovirus T250-4 (HIV-1)
[14] = target: HIV-1 Env of pseudovirus 3016.v5.c45 (HIV-1)
[15] = target: HIV-1 Env of pseudovirus T257-31 (HIV-1)
[16] = target: HIV-1 Env of pseudovirus 191955_A11 (HIV-1)
[17] = target: HIV-1 Env of pseudovirus Ce2060_G9 (HIV-1)
[18] = target: HIV-1 Env of pseudovirus 1056_10_TA11_1826 (HIV-1)
[19] = target: HIV-1 Env of pseudovirus PVO.4 (HIV-1)
[20] = target: HIV-1 Env of pseudovirus Q769.d22 (HIV-1)
[21] = target: HIV-1 Env of pseudovirus BJOX015000.11.5 (HIV-1)
[22] = target: HIV-1 Env of pseudovirus 191084 B7-19 (HIV-1)
[23] = target: HIV-1 Env of pseudovirus Du422.1 (HIV-1)
[24] = target: HIV-1 Env of pseudovirus 3301.v1.c24 (HIV-1)
[25] = target: HIV-1 Env of pseudovirus 9004SS_A3_4 (HIV-1)
[26] = target: HIV-1 Env of pseudovirus Q842.d12 (HIV-1)
[27] = target: HIV-1 Env of pseudovirus 0815.v3.c3 (HIV-1)
[28] = target: HIV-1 Env of pseudovirus TRJO4551.58 (HIV-1)
[29] = target: HIV-1 Env of pseudovirus 1394C9G1(Rev-) (HIV-1)
[30] = target: HIV-1 Env of pseudovirus CNE17 (HIV-1)
[31] = target: HIV-1 Env of pseudovirus 263-8 (HIV-1)
[32] = target: HIV-1 Env of pseudovirus CAP45.2.00.G3 (HIV-1)
[33] = target: HIV-1 Env of pseudovirus Q23.17 (HIV-1)
[34] = target: HIV-1 Env of pseudovirus 6535.3 (HIV-1)
[35] = target: HIV-1 Env of pseudovirus HIV-001428-2.42 (HIV-1)
[36] = target: HIV-1 Env of pseudovirus Q461.e2 (HIV-1)
[37] = target: HIV-1 Env of pseudovirus Du156.12 (HIV-1)

## NIH 45-46 (antibody)
[1]
  neutralization IC50: 0.01 µg/mL
  neutralization IC80: 0.03 µg/mL
[2]
  IC50, titer in TZM.bl cells: 0.26 µg/mL
  IC80, titer in TZM.bl cells: 1.16 µg/mL
[3]
  neutralization IC50: 0.1 µg/mL
  neutralization IC80: 0.39 µg/mL
[4]
  neutralization IC50: 0.44 µg/mL
  neutralization IC80: 1.55 µg/mL
[5]
  IC50, titer in TZM.bl cells: 0.04 µg/mL
  IC80, titer in TZM.bl cells: 0.16 µg/mL
[6]
  neutralization IC50: 1.64 µg/mL
  neutralization IC80: > 50 µg/mL
[7]
  IC50, titer in TZM.bl cells: > 30 µg/mL
  IC80, titer in TZM.bl cells: > 30 µg/mL
[8]
  IC50, titer in TZM.bl cells: 0.03 µg/mL
  IC80, titer in TZM.bl cells: 0.12 µg/mL
[9]
  IC50, titer in TZM.bl cells: > 50 µg/mL
  IC80, titer in TZM.bl cells: > 50 µg/mL
[10]
  neutralization IC50: 0.04 µg/mL
  neutralization IC80: 0.17 µg/mL
[11]
  IC50, titer in TZM.bl cells: 1.66 µg/mL
  IC80, titer in TZM.bl cells: 6.57 µg/mL
[12]
  neutralization IC50: 0.01 µg/mL
  neutralization IC80: 0.04 µg/mL
[13]
  IC50, titer in TZM.bl cells: > 30 µg/mL
  IC80, titer in TZM.bl cells: > 30 µg/mL
[14]
  IC50, titer in TZM.bl cells: > 30 µg/mL
  IC80, titer in TZM.bl cells: > 30 µg/mL
[15]
  neutralization IC50: 0.23 µg/mL
  neutralization IC80: 1.11 µg/mL
[16]
  neutralization IC50: 0.11 µg/mL
  neutralization IC80: 0.43 µg/mL
[17]
  neutralization IC50: 0.14 µg/mL
  neutralization IC80: 0.48 µg/mL
[18]
  neutralization IC50: 0.12 µg/mL
  neutralization IC80: 0.59 µg/mL
[19]
  neutralization IC50: 0.17 µg/mL
  neutralization IC80: 0.47 µg/mL
[20]
  neutralization IC50: 0.01 µg/mL
  neutralization IC80: 0.04 µg/mL
[21]
  IC50, titer in TZM.bl cells: 0.06 µg/mL
  IC80, titer in TZM.bl cells: 0.38 µg/mL
[22]
  neutralization IC50: 0.02 µg/mL
  neutralization IC80: 0.07 µg/mL
[23]
  neutralization IC50: > 50 µg/mL
  neutralization IC80: > 50 µg/mL
[24]
  IC50, titer in TZM.bl cells: 0.01 µg/mL
  IC80, titer in TZM.bl cells: 0.03 µg/mL
[25]
  neutralization IC50: 0.18 µg/mL
  neutralization IC80: 0.65 µg/mL
[26]
  neutralization IC50: 0.03 µg/mL
  neutralization IC80: 0.03 µg/mL
[27]
  IC50, titer in TZM.bl cells: 0.01 µg/mL
  IC80, titer in TZM.bl cells: 0.03 µg/mL
[28]
  neutralization IC50: 0.01 µg/mL
  neutralization IC80: 0.05 µg/mL
[29]
  neutralization IC50: 0.09 µg/mL
  neutralization IC80: 0.38 µg/mL
[30]
  neutralization IC50: 0.15 µg/mL
  neutralization IC80: 0.55 µg/mL
[31]
  neutralization IC50: 0.05 µg/mL
  neutralization IC80: 0.1 µg/mL
[32]
  neutralization IC50: > 50 µg/mL
  neutralization IC80: > 50 µg/mL
[33]
  neutralization IC50: 0.14 µg/mL
  neutralization IC80: 0.6 µg/mL
[34]
  neutralization IC50: 0.14 µg/mL
  neutralization IC80: 0.28 µg/mL
[35]
  neutralization IC50: < 0.001 µg/mL
  neutralization IC80: 0.01 µg/mL
[36]
  neutralization IC50: 0.06 µg/mL
  neutralization IC80: 0.32 µg/mL
[37]
  neutralization IC50: 0.01 µg/mL
  neutralization IC80: 0.05 µg/mL
